± gives the standard deviation.
Assay: collision cross section of modified peptide (TIMS, N2, iRT-aligned); higher = larger / more extended gas-phase ion
How it was run: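 Collision cross section values rest on the Mason-Schamp equation applied to calibrated, run-aligned mobility data from synthetic peptides. Mobility (1/K0) was calibrated with three reference ions and aligned per run to the median iRT peptide deviation, and 1–3 technical replicates of the most abundant feature per charge state were averaged. Data came from a timsTOF Pro/HT in dda-PASEF mode (nitrogen, ~2.4 mbar) after a 120-min nanoflow C18 gradient at 60 °C.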

[1] = charge state: 2, modification: Propionyl
[2] = charge state: 2, modification: Phospho (Y)
[3] = charge state: 3, modification: hydroxyisobutyryl
[4] = charge state: 3, modification: Trimethyl (K)
[5] = charge state: 2, modification: Butyryl
[6] = charge state: 2, modification: Glutarylation
[7] = charge state: 3, modification: Glutarylation
[8] = charge state: 3, modification: Citrullination (R)
[9] = charge state: 2, modification: Dimethyl (K)
[10] = charge state: 3, modification: Dimethyl (K)
[11] = charge state: 2, modification: Formyl
[12] = charge state: 3, modification: Formyl
[13] = charge state: 3, modification: HexNAc (ST)
[14] = charge state: 2, modification: Acetyl (K)
[15] = charge state: 2, modification: Trimethyl (K)
[16] = charge state: 2, modification: Biotin
[17] = charge state: 2, modification: Crotonyl
[18] = charge state: 3, modification: Crotonyl
[19] = charge state: 3, modification: Methyl (R)
[20] = charge state: 2, modification: GlyGly (K)
[21] = charge state: 2, modification: Citrullination (R)
[22] = charge state: 2, modification: Nitro (Y)
[23] = charge state: 3, modification: GlyGly (K)
[24] = charge state: 2, modification: Malonyl
[25] = charge state: 2, modification: HexNAc (ST)

SGFGKFER [_SGFGK(Propionyl)FER_]
collision cross section [1]: 336.62 ± 0.34 Å²

TAIQAAGYPDK [_TAIQAAGY(Phospho (Y))PDK_]
collision cross section [2]: 361.65 ± 9.9 Å²

SPPLPEHQKIPCNSAEPK [_SPPLPEHQK(hydroxyisobutyryl)IPCNSAEPK_]
collision cross section [3]: 544.57 Å²

PSVGSQSNQAGQGKR [_PSVGSQSNQAGQGK(Trimethyl (K))R_]
collision cross section [4]: 463.16 ± 1.5 Å²

DKALPLEAEVAPVK [_DK(Butyryl)ALPLEAEVAPVK_]
collision cross section [5]: 418.05 ± 4.9 Å²

LQDVSGQLSSSKK [_LQDVSGQLSSSK(Gluratylation)K_]
collision cross section [6]: 404.29 ± 0.99 Å²
collision cross section [7]: 482.96 ± 1.3 Å²

SRGGGGNFGPGPGSNFR [_SR(Citrullination (R))GGGGNFGPGPGSNFR_]
collision cross section [8]: 461.31 ± 6.4 Å²

TFGKAAGPSLSHTSGGTQSK [_TFGK(Gluratylation)AAGPSLSHTSGGTQSK_]
collision cross section [7]: 518.15 ± 2 Å²

SNEEGSEEKGPEVR [_SNEEGSEEK(Dimethyl (K))GPEVR_]
collision cross section [9]: 393.74 ± 1.1 Å²
collision cross section [10]: 467.17 ± 0.73 Å²

SLGEPAAGEGSAKR [_SLGEPAAGEGSAK(Formyl)R_]
collision cross section [11]: 375.91 ± 0.55 Å²
collision cross section [12]: 481.8 Å²

GSHGQTPSPGALPLGR [_GS(HexNAc (ST))HGQTPSPGALPLGR_]
collision cross section [13]: 494.18 ± 4.8 Å²

SKHLQEQLNELK [_SK(Acetyl (K))HLQEQLNELK_]
collision cross section [14]: 415.42 ± 1.7 Å²
collision cross section (charge state: 3, modification: Acetyl (K)): 483.11 ± 1.6 Å²

GTVPDDAVEALADSLGKK [_GTVPDDAVEALADSLGK(Formyl)K_]
collision cross section [11]: 449.34 ± 1.3 Å²
collision cross section [12]: 523.67 ± 1.8 Å²

VFSIISSEKELK [_VFSIISSEK(Acetyl (K))ELK_]
collision cross section [14]: 405.7 ± 0.9 Å²

YEEIVKEVSTYIK [_YEEIVK(Dimethyl (K))EVSTYIK_]
collision cross section [10]: 492.52 Å²

VGTASVLQPVKK [_VGTASVLQPVK(Trimethyl (K))K_]
collision cross section [15]: 394.06 ± 0.62 Å²
collision cross section [4]: 455.76 ± 1.5 Å²

LLEQKTQESQK [_LLEQK(Biotin)TQESQK_]
collision cross section [16]: 419.49 ± 1.1 Å²

ITLSKHQNVQLPR [_ITLSK(hydroxyisobutyryl)HQNVQLPR_]
collision cross section (charge state: 2, modification: hydroxyisobutyryl): 443.83 ± 0.038 Å²
collision cross section [3]: 520.86 ± 27 Å²

DLGKFQVATDALK [_DLGK(Biotin)FQVATDALK_]
collision cross section [16]: 425.47 ± 0.89 Å²

AAINQKLIETGER [_AAINQK(Butyryl)LIETGER_]
collision cross section [5]: 410.95 ± 1.7 Å²

DFDTALKHYDK [_DFDTALK(Crotonyl)HYDK_]
collision cross section [17]: 412.02 ± 2.4 Å²
collision cross section [18]: 466.35 ± 1.9 Å²

VTRYPILGIPQAHR [_VTR(Methyl (R))YPILGIPQAHR_]
collision cross section [19]: 524.3 ± 0.78 Å²

TVSKVDDFLANEAK [_TVSK(Acetyl (K))VDDFLANEAK_]
collision cross section [14]: 417.71 ± 1.3 Å²

GADFLVTEVENGGSLGSKK [_GADFLVTEVENGGSLGSK(GlyGly (K))K_]
collision cross section [20]: 505.48 Å²

GGGGGGGGGAPRGR [_GGGGGGGGGAPR(Citrullination (R))GR_]
collision cross section [21]: 333.41 ± 0.64 Å²
collision cross section [8]: 420.82 ± 2.9 Å²

ITGKNQVTATK [_ITGK(Gluratylation)NQVTATK_]
collision cross section [6]: 369.78 ± 0.66 Å²

SVSSSSYR [_SVSSSSY(Nitro (Y))R_]
collision cross section [22]: 311.12 ± 0.16 Å²

VGVEVPDVNIEGPEGKLK [_VGVEVPDVNIEGPEGK(GlyGly (K))LK_]
collision cross section [20]: 464.33 ± 1.3 Å²
collision cross section [23]: 509.72 ± 1.9 Å²

YIEIYVQKVNPSR [_YIEIYVQK(Dimethyl (K))VNPSR_]
collision cross section [9]: 441.4 ± 1.2 Å²
collision cross section [10]: 503.81 ± 1.6 Å²

VGLQVVAVKAPGFGDNR [_VGLQVVAVK(Crotonyl)APGFGDNR_]
collision cross section [17]: 449.86 ± 0.94 Å²
collision cross section [18]: 499.08 ± 1.6 Å²

SYISSQTNDTHK [_SYIS(HexNAc (ST))SQTNDTHK_]
collision cross section [13]: 474.05 ± 0.17 Å²

VGVEVPDVNIEGPEGKLK [_VGVEVPDVNIEGPEGK(Malonyl)LK_]
collision cross section [24]: 458.25 ± 0.64 Å²

FNALFAQGNYSEAAK [_FNALFAQGNY(Phospho (Y))SEAAK_]
collision cross section [2]: 426.34 ± 0.64 Å²

VDVEVPDVSLEGPEGKLK [_VDVEVPDVSLEGPEGK(Trimethyl (K))LK_]
collision cross section [15]: 461.69 ± 0.55 Å²
collision cross section [4]: 507.27 ± 0.86 Å²

VGEFSGANKEK [_VGEFSGANK(GlyGly (K))EK_]
collision cross section [20]: 372.84 ± 0.89 Å²
collision cross section [23]: 452.89 ± 1.5 Å²

YEITEQR [_Y(Nitro (Y))EITEQR_]
collision cross section [22]: 327.03 ± 0.71 Å²

LQEKVESAQSEQK [_LQEK(GlyGly (K))VESAQSEQK_]
collision cross section [20]: 427.55 ± 1.4 Å²
collision cross section [23]: 508.34 ± 0.87 Å²

ASDTSSETVFGKR [_ASDTSSETVFGK(Propionyl)R_]
collision cross section [1]: 398.28 ± 0.65 Å²
collision cross section (charge state: 3, modification: Propionyl): 481.99 Å²

ISEILLDHGAPIQAK [_IS(HexNAc (ST))EILLDHGAPIQAK_]
collision cross section [25]: 457.74 ± 0.56 Å²
collision cross section [13]: 559.32 ± 1.1 Å²

GETASKLQSEISR [_GETASK(Crotonyl)LQSEISR_]
collision cross section [17]: 388.79 ± 0.79 Å²
collision cross section [18]: 466.94 ± 1.6 Å²

ATVASSTQKFQDLGVK [_ATVASSTQK(Malonyl)FQDLGVK_]
collision cross section [24]: 440.93 ± 1 Å²

GGSAGGRGFFR [_GGSAGGR(Citrullination (R))GFFR_]
collision cross section [21]: 340.82 ± 0.52 Å²

GPPGAKGNK [_GPP(Hydroxyproline)GAKGNK_]
collision cross section (charge state: 2, modification: Hydroxyproline): 311.98 ± 0.24 Å²

FTEYETQVK [_FTEY(Nitro (Y))ETQVK_]
collision cross section [22]: 363.94 ± 0.94 Å²

YTCSFCGK [_Y(Nitro (Y))TCSFCGK_]
collision cross section [22]: 334.4 ± 0.71 Å²

ANLEKAQAELVGTADEATR [_ANLEK(Butyryl)AQAELVGTADEATR_]
collision cross section [5]: 479.49 ± 1.1 Å²
collision cross section (charge state: 3, modification: Butyryl): 578.23 ± 2 Å²

FEGAIYR [_FEGAIY(Phospho (Y))R_]
collision cross section [2]: 333.04 ± 0.65 Å²

GRGAAAAGGPQR [_GR(Citrullination (R))GAAAAGGPQR_]
collision cross section [21]: 334.88 ± 0.28 Å²

HGGSGGRGVSVSSAR [_HGGSGGR(Methyl (R))GVSVSSAR_]
collision cross section [19]: 477.29 ± 1.5 Å²

VNIGQGSHPQKVK [_VNIGQGSHPQK(Methyl (K))VK_]
collision cross section (charge state: 2, modification: Methyl (K)): 409.02 ± 0.54 Å²
collision cross section (charge state: 3, modification: Methyl (K)): 465.41 ± 17 Å²

IGNSYFKEEK [_IGNSYFK(Gluratylation)EEK_]
collision cross section [6]: 381.23 ± 0.61 Å²

VFIGNLNTLVVKK [_VFIGNLNTLVVK(Formyl)K_]
collision cross section [11]: 407.78 ± 0.74 Å²

VGTASVLQPVKK [_VGTASVLQPVK(GlyGly (K))K_]
collision cross section [20]: 404.53 ± 0.36 Å²
collision cross section [23]: 466.32 ± 0.78 Å²

GFCFITYTDEEPVKK [_GFCFITYTDEEPVK(Succinyl)K_]
collision cross section (charge state: 2, modification: Succinyl): 465.85 ± 1.1 Å²

IVNVSLADLR [_IVNVS(HexNAc (ST))LADLR_]
collision cross section [25]: 388.29 ± 1.2 Å²

LDEKENLSAK [_LDEK(Malonyl)ENLSAK_]
collision cross section [24]: 361.65 ± 0.75 Å²

GGFQNRGGGSGGGGNYR [_GGFQNR(Citrullination (R))GGGSGGGGNYR_]
collision cross section [21]: 403.21 ± 0.81 Å²
collision cross section [8]: 503.84 Å²
